The values below come from patent KR20210154940A (dated 2021).

Assay [1] concerns the target CEACAM1 N-도메인 (CEACAM1 N-domain, residues 35-141) (human) (UniProt P13688). In words: X-ray crystal structure of the Fab and N-domain complex.
Assay [2] concerns the target T1, hCEACAM1 (R&D Systems, CAT. NO. 2244-CM) (human, UniProt P13688 35-428).
T1 construct: not shown: a His tag is implied by the use of Anti-His (His1K) biosensors
T1 sequence: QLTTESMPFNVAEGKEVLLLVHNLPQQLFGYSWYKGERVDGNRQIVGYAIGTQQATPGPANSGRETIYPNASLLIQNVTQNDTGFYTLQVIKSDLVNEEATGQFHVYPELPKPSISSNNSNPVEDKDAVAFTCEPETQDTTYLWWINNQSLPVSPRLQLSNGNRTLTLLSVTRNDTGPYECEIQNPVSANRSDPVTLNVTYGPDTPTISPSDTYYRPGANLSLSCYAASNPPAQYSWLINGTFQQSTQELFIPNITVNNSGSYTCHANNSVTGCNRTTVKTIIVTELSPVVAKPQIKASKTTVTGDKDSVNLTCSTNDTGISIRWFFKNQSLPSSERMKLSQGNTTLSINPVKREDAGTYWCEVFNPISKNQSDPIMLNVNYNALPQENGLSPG
Nature of the assay: BLI (Octet QKe); sentence that introduces Table 5, differs from the table cell. A general note: In BLI a coated tip is dipped into the sample, and binding shifts an interference pattern.

For assay [3], the target named is T1, hCEACAM1 (R&D Systems, CAT. NO. 2244-CM). Nature of the assay: BLI (Octet QKe); Anti-His (His1K) biosensors, hCEACAM1 (R&D 2244-CM), antibody at 6.25-400 nM.
Assay [4] shares this target. Nature of the assay: not named in this sentence (BLI in Example 4); differs from the table cell.

B1: 항-CEACAM1 항체의 Fab (Fab of the anti-CEACAM1 antibody, papain fragment of the IgG1-type antibody) (Fab, V domains shown)
VH: EVQLLESGGGLVQPGGSLRLSCAASGFTFSNYAMSWVRQAPGKGLEWVSVISHGGGSIYYADSVKGRLTISRDNSKNTLYLQMNSLRAEDTAVYYCARDPTKGYAPTFDYWGQGTLVTVSS
VL: QSVLTQPPSASGTPGQRVTISCSGSSSNIGNNYVSWYQQLPGTAPKLLIYADSRRPSGVPDRFSGSKSGTSASLAISGLRSEDEADYYCGAWDLSLNGYVFGGGTKLTVLG
Molecule B1 showed a 항원-항체 결합의 전체 표면적 in assay [1] of 792 Å2.

B2: 항-CEACAM1 항체 (anti-CEACAM1 antibody, IgG4 type) (antibody, V domains shown)
VH: B1 VH
VL: B1 VL
notes: also called 일 실시예의 항-CEACAM1 항체
A word on the Kd: it is the equilibrium constant for the complex coming apart. Read a high Kd as a looser complex. The koff is the rate constant with which the complex falls apart. Low readings indicate a long-lived complex, high ones a short-lived complex. What is called kon is the rate constant with which the complex forms. Higher therefore signals fast association. B2: in assay [2], the Kd amounted to 3.9 nM. In assay [3], this molecule had a Kd of 3.39 nM, a koff of 0.000567 s⁻¹ and an on-rate constant (kon) of 163000 M⁻¹ s⁻¹. In assay [4], this molecule came in with a Kd of 3.36 nM.
